From PMC8694081 (Molecular Biology of the Cell, 2021)
Changes are numbered by the printed parent chain. Names and notes keep the numbering of the source. Like-named read-outs stand apart in the source and are kept apart here. Each block holds one binder with its values, some of them ahead of it.

Tests used:
ubiquitin [1] = target: T1, ubiquitin (UniProt P0CG48 1-76); assay: NMR titration
ubiquitin [2] = target: T1, ubiquitin; assay: NMR HSQC peak broadening and PRE
ubiquitin [3] = target: T1, ubiquitin; assay: NMR HSQC peak broadening and PRE; remark: listed apart in the source

binding result (ubiquitin [2]): binds
B5: HD-PTP V domain Site2∆ (E388A, D389A), single spin label at residue 368 (domain or fragment)
chain: VPMAAHECSSLYSEEKAKLLREMMAKIAAKNEVLDQFMDSMQLDPETVDNLDAYSHIPPQLMEKAAALSVRPDTVRNLVQSMQVLSGVFTDVEASLKDIRDLLEEDELLEQKFQEAVGQAGAISITSKAELAEVRREWAKYMEVHEKASFTNSELHRAMNLHVGNLRLLSGPLDQVRAALPTPALSPEDKAVLQNLKRILAKVQEMRDQRVSLEQQLRELIQKDDITASLVTTDHSEMKKLFEEQLKKYDQLKVYLEQNLAAQDRVLAALTEANVQYAAVRRVLSDLDQKWNSTLQTLVASYEAYEDLMKKSQEGRDFYADLESKVAALLERTQSTAQAREAARQQLLDRE
modifications: MTSL spin label on cysteine 368

binding result (ubiquitin [3]): binds
B6: HD-PTP V domain, no-Cys, single cysteine at 368 (A368C), MTSL-labelled (domain or fragment)
chain: B5 chain with A28E, A29D
modifications: MTSL spin label on cysteine 368

binding result (ubiquitin [3]): binds
B7: HD-PTP V domain, no-Cys, S400C, MTSL-labelled (domain or fragment)
chain: B5 chain with C8A, A28E, A29D, S40C
modifications: MTSL spin label on cysteine 400

Continued, binder first:

B1: HD-PTP V domain (residues 361-711), wild type (domain or fragment)
chain: B5 chain with C8A, A28E, A29D, A65C, A268C, A337C
Kd (ubiquitin [1]): ~31 µM

B2: HD-PTP V domain Site2∆ (E388A, D389A), single spin label at residue 400 (S400) (domain or fragment)
chain: B5 chain with C8A, S40C
modifications: MTSL spin label on cysteine 400
binding result (ubiquitin [2]): binds

B3: HD-PTP V domain Site1∆ (L371A, E374A, E375A) (domain or fragment)
chain: B5 chain with C8A, L11A, E14A, E15A, A28E, A29D, A65C, A268C, A337C
Kd (ubiquitin [1]): 900 µM

B4: HD-PTP V domain lacking cysteine residues (C425A, C628A, C697A) (domain or fragment)
chain: B5 chain with C8A, A28E, A29D
binding result (ubiquitin [3]): binds
